PMC9482650, “Quantitative fragmentomics allow affinity mapping of interactomes” (Nature Communications, 2022)

Tests used:
Test in all cases: holdup assay
Parameters in all cases: key: below the threshold = too weak to quantify, mostly under pKd 3.1 to 4
Settings in all cases: plain residues with an end cap or a label only (N-terminal biotin on a linker: ado-ado)
APBA1_1, Q02410 = molecular target: T1, APBA1_1, Q02410
T1 sequence (Q02410 651-752, limits assumed, looked up): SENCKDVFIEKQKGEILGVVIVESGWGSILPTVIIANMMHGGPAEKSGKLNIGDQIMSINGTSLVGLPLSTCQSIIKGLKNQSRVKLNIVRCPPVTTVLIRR

APBA2_1, Q99767 = molecular target: T2, APBA2_1, Q99767
T2 sequence (Q99767 563-664, limits assumed, looked up): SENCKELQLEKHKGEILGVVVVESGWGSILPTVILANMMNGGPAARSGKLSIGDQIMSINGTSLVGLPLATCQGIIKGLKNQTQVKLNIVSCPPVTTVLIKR

CASK, O14936 = molecular target: CASK, O14936
DLG5_1, Q8TDM6 = molecular target: DLG5_1, Q8TDM6
FRMPD4, Q14CM0 = molecular target: FRMPD4, Q14CM0
GORASP2, Q9H8Y8 = molecular target: GORASP2, Q9H8Y8
GRID2IP_1, A4D2P6 = molecular target: GRID2IP_1, A4D2P6
GRIP1_2, Q9Y3R0 = molecular target: T3, GRIP1_2, Q9Y3R0
T3 sequence (Q9Y3R0 145-248, limits assumed, looked up): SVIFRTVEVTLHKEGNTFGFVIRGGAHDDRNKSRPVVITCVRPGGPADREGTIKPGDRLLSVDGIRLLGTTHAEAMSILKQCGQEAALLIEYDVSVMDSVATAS

GRIP1_3, Q9Y3R0 = molecular target: T4, GRIP1_3, Q9Y3R0
T4 sequence (Q9Y3R0 247-346, limits assumed, looked up): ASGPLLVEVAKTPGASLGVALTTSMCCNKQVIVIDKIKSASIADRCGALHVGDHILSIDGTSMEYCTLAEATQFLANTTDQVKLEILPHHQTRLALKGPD

GRIP1_5, Q9Y3R0 = molecular target: T5, GRIP1_5, Q9Y3R0
T5 sequence (Q9Y3R0 568-668, limits assumed, looked up): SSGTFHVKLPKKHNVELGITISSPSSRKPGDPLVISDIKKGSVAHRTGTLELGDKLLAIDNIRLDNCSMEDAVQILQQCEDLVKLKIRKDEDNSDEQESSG

GRIP1_7, Q9Y3R0 = molecular target: T6, GRIP1_7, Q9Y3R0
T6 sequence (Q9Y3R0 999-1096, limits assumed, looked up): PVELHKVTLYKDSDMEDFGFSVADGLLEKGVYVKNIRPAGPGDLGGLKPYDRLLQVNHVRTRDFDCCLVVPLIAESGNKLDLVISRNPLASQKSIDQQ

GRIP2_4, Q9C0E4 = molecular target: GRIP2_4, Q9C0E4
GRIP2_5, Q9C0E4 = molecular target: GRIP2_5, Q9C0E4
GRIP2_6, Q9C0E4 = molecular target: GRIP2_6, Q9C0E4
GRIP2_7, Q9C0E4 = molecular target: GRIP2_7, Q9C0E4
HTRA2, O43464 = molecular target: HTRA2, O43464
Inadl_2, Q8NI35 = molecular target: Inadl_2, Q8NI35
LAP2, Q96RT1 = molecular target: LAP2, Q96RT1
MAGI2_2, Q86UL8 = molecular target: MAGI2_2, Q86UL8
MAGI2_4, Q86UL8 = molecular target: MAGI2_4, Q86UL8
MPP7, Q5T2T1 = molecular target: T7, MPP7, Q5T2T1
T7 sequence (Q5T2T1 134-230, limits assumed, looked up): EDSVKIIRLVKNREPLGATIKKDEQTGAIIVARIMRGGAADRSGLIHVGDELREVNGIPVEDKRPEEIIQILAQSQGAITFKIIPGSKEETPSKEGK

PDZRN4_1, Q6ZMN7 = molecular target: PDZRN4_1, Q6ZMN7
SCRIB_1, Q14160 = molecular target: SCRIB_1, Q14160
SCRIB_2, Q14160 = molecular target: SCRIB_2, Q14160
SNX27, Q96L92 = molecular target: SNX27, Q96L92
SYNJ2BP, P57105 = molecular target: T8, SYNJ2BP, P57105
T8 sequence (P57105 8-110, limits assumed, looked up): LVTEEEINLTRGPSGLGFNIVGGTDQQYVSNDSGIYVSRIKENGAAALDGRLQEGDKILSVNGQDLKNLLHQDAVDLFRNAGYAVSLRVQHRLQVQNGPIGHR

TJP2_1, Q9UDY2 = molecular target: TJP2_1, Q9UDY2
TJP3_3, O95049 = molecular target: T9, TJP3_3, O95049
T9 sequence (O95049 375-456, limits assumed, looked up): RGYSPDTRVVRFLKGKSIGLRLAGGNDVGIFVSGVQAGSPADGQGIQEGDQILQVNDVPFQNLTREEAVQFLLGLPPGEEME

GRIP2_7, Q9C0E4, sequence (Q9C0E4 934-1023): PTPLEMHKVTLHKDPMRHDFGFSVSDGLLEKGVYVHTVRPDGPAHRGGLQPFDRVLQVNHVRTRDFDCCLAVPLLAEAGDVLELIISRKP
SCRIB_2, Q14160, sequence (Q14160 857-960): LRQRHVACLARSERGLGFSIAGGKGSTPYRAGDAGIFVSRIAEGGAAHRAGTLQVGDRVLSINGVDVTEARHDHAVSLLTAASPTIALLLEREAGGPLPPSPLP
DLG5_1, Q8TDM6, sequence (Q8TDM6 617-713): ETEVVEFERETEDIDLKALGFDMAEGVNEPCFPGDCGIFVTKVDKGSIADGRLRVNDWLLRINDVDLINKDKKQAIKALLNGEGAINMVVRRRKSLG
GRIP2_4, Q9C0E4, sequence (Q9C0E4 446-548): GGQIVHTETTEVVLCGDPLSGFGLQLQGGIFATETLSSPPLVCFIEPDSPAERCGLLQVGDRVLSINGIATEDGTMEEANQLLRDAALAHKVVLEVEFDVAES
TJP2_1, Q9UDY2, sequence (Q9UDY2 24-128): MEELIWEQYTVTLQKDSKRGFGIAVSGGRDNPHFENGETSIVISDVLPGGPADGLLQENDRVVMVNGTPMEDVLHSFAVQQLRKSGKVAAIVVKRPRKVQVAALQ
GRID2IP_1, A4D2P6, sequence (A4D2P6 1-87): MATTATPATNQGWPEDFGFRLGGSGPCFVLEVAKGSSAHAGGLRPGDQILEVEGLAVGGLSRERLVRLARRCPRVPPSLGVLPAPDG
HTRA2, O43464, sequence (O43464 355-458): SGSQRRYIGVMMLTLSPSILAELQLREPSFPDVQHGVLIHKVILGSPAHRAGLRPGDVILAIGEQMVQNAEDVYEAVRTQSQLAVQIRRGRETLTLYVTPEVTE
FRMPD4, Q14CM0, sequence (Q14CM0 67-160): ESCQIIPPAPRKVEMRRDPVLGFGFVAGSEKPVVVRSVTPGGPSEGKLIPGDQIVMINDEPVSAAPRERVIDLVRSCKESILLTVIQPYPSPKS
MAGI2_2, Q86UL8, sequence (Q86UL8 410-522): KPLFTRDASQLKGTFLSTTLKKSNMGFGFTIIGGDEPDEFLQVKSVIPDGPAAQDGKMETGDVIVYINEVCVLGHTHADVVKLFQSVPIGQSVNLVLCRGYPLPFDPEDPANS
GRIP2_5, Q9C0E4, sequence (Q9C0E4 544-642): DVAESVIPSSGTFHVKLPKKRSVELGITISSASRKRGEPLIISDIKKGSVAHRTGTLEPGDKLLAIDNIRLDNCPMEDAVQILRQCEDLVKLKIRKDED
LAP2, Q96RT1, sequence (Q96RT1 other isoform, or with tags, fused parts or gaps): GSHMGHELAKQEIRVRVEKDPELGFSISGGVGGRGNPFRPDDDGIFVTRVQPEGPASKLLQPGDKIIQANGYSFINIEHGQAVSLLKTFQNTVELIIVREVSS
SCRIB_1, Q14160, sequence (Q14160 718-814): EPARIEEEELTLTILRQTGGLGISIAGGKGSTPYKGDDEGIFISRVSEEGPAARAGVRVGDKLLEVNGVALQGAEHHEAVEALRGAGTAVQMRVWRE
Inadl_2, Q8NI35, sequence (Q8NI35 238-335): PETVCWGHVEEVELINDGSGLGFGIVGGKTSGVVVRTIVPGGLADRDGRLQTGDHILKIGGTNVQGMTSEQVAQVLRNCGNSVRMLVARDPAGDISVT
PDZRN4_1, Q6ZMN7, sequence (Q6ZMN7 213-318): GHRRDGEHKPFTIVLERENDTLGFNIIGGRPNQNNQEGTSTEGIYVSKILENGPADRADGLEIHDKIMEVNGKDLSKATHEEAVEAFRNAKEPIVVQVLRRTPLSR
GRIP2_6, Q9C0E4, sequence (Q9C0E4 648-740): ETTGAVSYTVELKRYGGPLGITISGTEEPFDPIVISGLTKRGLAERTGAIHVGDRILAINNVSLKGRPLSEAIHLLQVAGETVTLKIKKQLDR
MAGI2_4, Q86UL8, sequence (Q86UL8 772-865): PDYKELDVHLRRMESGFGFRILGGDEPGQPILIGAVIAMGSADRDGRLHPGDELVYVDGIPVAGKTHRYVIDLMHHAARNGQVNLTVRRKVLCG
CASK, O14936, sequence (O14936 487-570): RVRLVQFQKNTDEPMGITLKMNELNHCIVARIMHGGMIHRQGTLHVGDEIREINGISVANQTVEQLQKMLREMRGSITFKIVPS

VISSDDLTEL [CAPN6, Q9Y6Q1] was tested, and the pKd (APBA1_1, Q02410) was “below the threshold”, the pKd (APBA2_1, Q99767) was “below the threshold” and the pKd (CASK, O14936) was “below the threshold”. For the same binder, the pKd (DLG5_1, Q8TDM6) was “below the threshold”, the pKd (FRMPD4, Q14CM0) was 4.73 and the pKd (GORASP2, Q9H8Y8) was “below the threshold”. For the same binder, the pKd (GRID2IP_1, A4D2P6) was “below the threshold”, the pKd (GRIP1_2, Q9Y3R0) was “below the threshold” and the pKd (GRIP1_3, Q9Y3R0) was “below the threshold”. For the same binder, the pKd (GRIP1_5, Q9Y3R0) was “below the threshold”, the pKd (GRIP1_7, Q9Y3R0) was “below the threshold” and the pKd (GRIP2_4, Q9C0E4) was “below the threshold”. The pKd (GRIP2_5, Q9C0E4) was “below the threshold”, the pKd (GRIP2_6, Q9C0E4) was “below the threshold” and the pKd (GRIP2_7, Q9C0E4) was “below the threshold”. For the same binder, the pKd (HTRA2, O43464) was “below the threshold”, the pKd (Inadl_2, Q8NI35) was “below the threshold” and the pKd (LAP2, Q96RT1) was “below the threshold”. For the same binder, the pKd (MAGI2_2, Q86UL8) was “below the threshold”, the pKd (MAGI2_4, Q86UL8) was “below the threshold” and the pKd (MPP7, Q5T2T1) was “below the threshold”. The pKd (PDZRN4_1, Q6ZMN7) was “below the threshold”, the pKd (SCRIB_1, Q14160) was 3.6 and the pKd (SCRIB_2, Q14160) was “below the threshold”. The pKd (SNX27, Q96L92) was 4.17, the pKd (SYNJ2BP, P57105) was “below the threshold” and the pKd (TJP2_1, Q9UDY2) was “below the threshold”. The pKd (TJP3_3, O95049) was “below the threshold”.

With RGKNRRQSIF [CDK18, Q07002] the pKd (APBA1_1, Q02410) was “below the threshold”, the pKd (APBA2_1, Q99767) was “below the threshold” and the pKd (CASK, O14936) was “below the threshold”. The pKd (DLG5_1, Q8TDM6) was “below the threshold”, the pKd (FRMPD4, Q14CM0) was 3.65 and the pKd (GORASP2, Q9H8Y8) was 3.87. For the same binder, the pKd (GRID2IP_1, A4D2P6) was “below the threshold”, the pKd (GRIP1_2, Q9Y3R0) was “below the threshold” and the pKd (GRIP1_3, Q9Y3R0) was “below the threshold”. The pKd (GRIP1_5, Q9Y3R0) was “below the threshold”, the pKd (GRIP1_7, Q9Y3R0) was “below the threshold” and the pKd (GRIP2_4, Q9C0E4) was “below the threshold”. The pKd (GRIP2_5, Q9C0E4) was “below the threshold”, the pKd (GRIP2_6, Q9C0E4) was “below the threshold” and the pKd (GRIP2_7, Q9C0E4) was “below the threshold”. The pKd (HTRA2, O43464) was “below the threshold”, the pKd (Inadl_2, Q8NI35) was “below the threshold” and the pKd (LAP2, Q96RT1) was 3.74. The pKd (MAGI2_2, Q86UL8) was “below the threshold”, the pKd (MAGI2_4, Q86UL8) was “below the threshold” and the pKd (MPP7, Q5T2T1) was “below the threshold”. The pKd (PDZRN4_1, Q6ZMN7) was “below the threshold”, the pKd (SCRIB_1, Q14160) was “below the threshold” and the pKd (SCRIB_2, Q14160) was “below the threshold”. The pKd (SNX27, Q96L92) was “below the threshold”, the pKd (SYNJ2BP, P57105) was “below the threshold” and the pKd (TJP2_1, Q9UDY2) was 3.47. For the same binder, the pKd (TJP3_3, O95049) was “below the threshold”.

For AKADAQESRL [PLCB2, Q00722], the pKd (APBA1_1, Q02410) was “below the threshold”, the pKd (APBA2_1, Q99767) was “below the threshold” and the pKd (CASK, O14936) was “below the threshold”. The pKd (DLG5_1, Q8TDM6) was “below the threshold”, the pKd (FRMPD4, Q14CM0) was 4.05 and the pKd (GORASP2, Q9H8Y8) was “below the threshold”. For the same binder, the pKd (GRID2IP_1, A4D2P6) was “below the threshold”, the pKd (GRIP1_2, Q9Y3R0) was “below the threshold” and the pKd (GRIP1_3, Q9Y3R0) was “below the threshold”. The pKd (GRIP1_5, Q9Y3R0) was “below the threshold”, the pKd (GRIP1_7, Q9Y3R0) was “below the threshold” and the pKd (GRIP2_4, Q9C0E4) was “below the threshold”. The pKd (GRIP2_5, Q9C0E4) was “below the threshold”, the pKd (GRIP2_6, Q9C0E4) was “below the threshold” and the pKd (GRIP2_7, Q9C0E4) was “below the threshold”. The pKd (HTRA2, O43464) was “below the threshold”, the pKd (Inadl_2, Q8NI35) was “below the threshold” and the pKd (LAP2, Q96RT1) was “below the threshold”. The pKd (MAGI2_2, Q86UL8) was “below the threshold”, the pKd (MAGI2_4, Q86UL8) was “below the threshold” and the pKd (MPP7, Q5T2T1) was “below the threshold”. The pKd (PDZRN4_1, Q6ZMN7) was 4.5, the pKd (SCRIB_1, Q14160) was 4.2 and the pKd (SCRIB_2, Q14160) was “below the threshold”. The pKd (SNX27, Q96L92) was 5.21, the pKd (SYNJ2BP, P57105) was 3.97 and the pKd (TJP2_1, Q9UDY2) was “below the threshold”. For the same binder, the pKd (TJP3_3, O95049) was “below the threshold”.

THHRKIHTRV [ZNF599, Q96NL3] was tested, and the pKd (APBA1_1, Q02410) was “below the threshold”, the pKd (APBA2_1, Q99767) was “below the threshold” and the pKd (CASK, O14936) was “below the threshold”. For the same binder, the pKd (DLG5_1, Q8TDM6) was 3.72, the pKd (FRMPD4, Q14CM0) was “below the threshold” and the pKd (GORASP2, Q9H8Y8) was 4.25. The pKd (GRID2IP_1, A4D2P6) was 3.6, the pKd (GRIP1_2, Q9Y3R0) was “below the threshold” and the pKd (GRIP1_3, Q9Y3R0) was “below the threshold”. The pKd (GRIP1_5, Q9Y3R0) was “below the threshold”, the pKd (GRIP1_7, Q9Y3R0) was “below the threshold” and the pKd (GRIP2_4, Q9C0E4) was “below the threshold”. It also gave a pKd (GRIP2_5, Q9C0E4) of 3.48, a pKd (GRIP2_6, Q9C0E4) of 3.86 and a pKd (GRIP2_7, Q9C0E4) of 3.66. For the same binder, the pKd (HTRA2, O43464) was “below the threshold”, the pKd (Inadl_2, Q8NI35) was “below the threshold” and the pKd (LAP2, Q96RT1) was “below the threshold”. The pKd (MAGI2_2, Q86UL8) was 5.78, the pKd (MAGI2_4, Q86UL8) was “below the threshold” and the pKd (MPP7, Q5T2T1) was “below the threshold”. The pKd (PDZRN4_1, Q6ZMN7) was “below the threshold”, the pKd (SCRIB_1, Q14160) was 3.98 and the pKd (SCRIB_2, Q14160) was 4.15. For the same binder, the pKd (SNX27, Q96L92) was 4.31, the pKd (SYNJ2BP, P57105) was 4.32 and the pKd (TJP2_1, Q9UDY2) was 4.6. For the same binder, the pKd (TJP3_3, O95049) was “below the threshold”.
